Values quoted from earlier work, collected in article PMC4005919.

Target: BID BH3 (Homo sapiens) (UniProt P55957)
Sequence (P55957 80-99): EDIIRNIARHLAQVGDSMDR

BAK, sequence (Q16611 2-211): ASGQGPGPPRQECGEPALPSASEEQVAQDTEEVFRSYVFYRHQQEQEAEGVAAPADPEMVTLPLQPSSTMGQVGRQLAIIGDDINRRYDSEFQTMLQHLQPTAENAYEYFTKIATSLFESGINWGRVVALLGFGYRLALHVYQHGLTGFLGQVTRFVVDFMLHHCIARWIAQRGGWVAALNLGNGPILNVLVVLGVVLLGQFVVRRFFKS

BAK (from UniProt Q16611)
Kd: 10 µM
